In article PMC11251181, “Crystal structure of MAGEA4 MHD-RAD18 R6BD reveals a flipped binding mode compared to AlphaFold2 prediction” (The EMBO Journal, 2024):
No end group written: not given here.

Biological target: T1, MAGEA4 MAGE homology domain (MHD), residues D101-V317 (human, UniProt P43358 101-317)
T1 construct: MAGEA4, human, MAGE homology domain, residues D101-V317; His6 tag removed with TEV protease; also called MAGEA4 MHD; MAGEA4-MHD; source: E. coli BL21 (DE3), purified (Ni-NTA, TEV cleavage, Superdex-75 SEC); not shown: His6, N-terminal, cleaved
T1 sequence (looked up): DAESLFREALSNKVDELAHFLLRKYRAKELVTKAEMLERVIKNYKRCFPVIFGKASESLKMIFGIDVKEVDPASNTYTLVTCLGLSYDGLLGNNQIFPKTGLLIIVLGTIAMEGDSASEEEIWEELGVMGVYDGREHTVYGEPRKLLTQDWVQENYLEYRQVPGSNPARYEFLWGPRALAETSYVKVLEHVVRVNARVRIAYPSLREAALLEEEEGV
Experiment: crystal structure; MAGEA4 MHD (10.3 mg/mL) incubated on ice with a 1:2 molar ratio of RAD18 R6BD in 20 mM Tris HCl pH 7.5, 200 mM NaCl, 1 mM TCEP; sitting drop vapor diffusion; 2.58 Å
Conditions: both partners purified

binding result: binds
B1: RAD18 RAD6-binding domain (R6BD) peptide, residues H339-G366 (peptide, UniProt Q9NS91 339-366, looked up)
peptide: HSKYRKKHKSEFQLLVDQARKGYKKIAG-NH2
notes: also called RAD18 R6BD; source: synthetic peptide (UNC Chapel Hill High-Throughput Peptide Synthesis and Array Facility)
